From paper PMC8528823

Target: Mouse Fc (mFc) tagged mink ACE2 (mink (Neovison vison))
Assay: SPR

## SARS-CoV-2 WT RBD (from UniProt P0DTC2 319-541) (domain or fragment)
  Kd: 8.16 µM
